# Source: article doi:10.1101/2024.12.31.629942 (bioRxiv, 2024)
# T1: FtsZ^D212N (untagged) (E. coli, UniProt P0A9A6 1-383, D212N)
# T1 sequence: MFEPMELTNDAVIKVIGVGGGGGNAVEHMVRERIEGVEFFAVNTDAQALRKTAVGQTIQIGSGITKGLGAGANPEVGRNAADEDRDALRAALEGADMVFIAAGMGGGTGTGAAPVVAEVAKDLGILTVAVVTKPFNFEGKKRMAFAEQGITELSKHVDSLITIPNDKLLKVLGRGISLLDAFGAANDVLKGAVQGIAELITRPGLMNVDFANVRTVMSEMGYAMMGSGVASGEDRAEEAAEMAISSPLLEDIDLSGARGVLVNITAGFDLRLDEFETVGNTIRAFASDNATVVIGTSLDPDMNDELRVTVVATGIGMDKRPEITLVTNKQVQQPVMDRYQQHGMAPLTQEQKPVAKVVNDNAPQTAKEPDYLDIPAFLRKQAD
# T2: FtsZ (wild-type, untagged) (E. coli, UniProt P0A9A6 1-383)
# T2 sequence: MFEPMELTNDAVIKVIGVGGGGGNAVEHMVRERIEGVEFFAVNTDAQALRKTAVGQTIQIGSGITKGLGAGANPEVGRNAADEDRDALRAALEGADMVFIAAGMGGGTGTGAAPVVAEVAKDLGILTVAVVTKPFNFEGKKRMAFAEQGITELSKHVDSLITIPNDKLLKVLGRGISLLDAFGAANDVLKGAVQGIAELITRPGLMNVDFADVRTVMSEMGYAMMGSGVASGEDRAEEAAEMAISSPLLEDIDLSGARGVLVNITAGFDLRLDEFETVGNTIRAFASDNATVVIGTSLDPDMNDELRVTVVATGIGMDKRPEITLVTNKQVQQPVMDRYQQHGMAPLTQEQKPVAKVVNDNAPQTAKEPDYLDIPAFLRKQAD
# Experiments:
# FtsZ^D212N (untagged) = target: T1, FtsZ^D212N (untagged); experiment: pull-down
# [1] = target: T2, FtsZ (wild-type, untagged); experiment: co-sedimentation
# [2] = target: the molecule itself; experiment: sedimentation of polymers
binder,measurement,setting,value
H-SUMO-ZapA (natural protein) MSAQPVDIQIFGRSLRVNCPPDQRDALNQAADDLNQRLQDLKERTRVTNTEQLVFIAALNISYELAQEKAKTRDYAASMEQRIRMLQQTIEQALLEQGRITEKTNQNFE,binding result,FtsZ^D212N (untagged),binds
ZapA (untagged) (natural protein) MSAQPVDIQIFGRSLRVNCPPDQRDALNQAADDLNQRLQDLKERTRVTNTEQLVFIAALNISYELAQEKAKTRDYAASMEQRIRMLQQTIEQALLEQGRITEKTNQNFE,binding result,[1],binds
FtsZ^F2A (untagged) (natural protein) MAEPMELTNDAVIKVIGVGGGGGNAVEHMVRERIEGVEFFAVNTDAQALRKTAVGQTIQIGSGITKGLGAGANPEVGRNAADEDRDALRAALEGADMVFIAAGMGGGTGTGAAPVVAEVAKDLGILTVAVVTKPFNFEGKKRMAFAEQGITELSKHVDSLITIPNDKLLKVLGRGISLLDAFGAANDVLKGAVQGIAELITRPGLMNVDFADVRTVMSEMGYAMMGSGVASGEDRAEEAAEMAISSPLLEDIDLSGARGVLVNITAGFDLRLDEFETVGNTIRAFASDNATVVIGTSLDPDMNDELRVTVVATGIGMDKRPEITLVTNKQVQQPVMDRYQQHGMAPLTQEQKPVAKVVNDNAPQTAKEPDYLDIPAFLRKQAD,binding result,[2],binds
